Where a SMILES comes first, the peptide text is derived from it. [ ]: non-standard residue; d: D form.
Legend:
PKC-δ = PKC-δ (Homo sapiens, UniProt Q05655); assay: Competitive binding assay using cell extracts (Western blot); set-up: cytoplasmic extracts from different cell lines expressing appropriate PKC isoforms; endogenous in cells; host or cells: H661, MDAMB231, LS180, T24; key: —: no detectable affinity; Low to very low affinity at 10X or 20X or both PRE concentrations in at least one cell line in the cell extract assay; Low affinity in purified isoform assay.; Moderate affinity at 10X or 20X or both PRE concentrations in at least one cell line in the cell extract assay.; High affinity at 10X or 20X or both PRE concentrations in at least one cell line in the cell extract assay; High affinity in purified isoform assay; settings: Cell extract; PRE 10X or 20X antibody concentration
PKC-δ, sequence (Q05655 whole entry, canonical isoform): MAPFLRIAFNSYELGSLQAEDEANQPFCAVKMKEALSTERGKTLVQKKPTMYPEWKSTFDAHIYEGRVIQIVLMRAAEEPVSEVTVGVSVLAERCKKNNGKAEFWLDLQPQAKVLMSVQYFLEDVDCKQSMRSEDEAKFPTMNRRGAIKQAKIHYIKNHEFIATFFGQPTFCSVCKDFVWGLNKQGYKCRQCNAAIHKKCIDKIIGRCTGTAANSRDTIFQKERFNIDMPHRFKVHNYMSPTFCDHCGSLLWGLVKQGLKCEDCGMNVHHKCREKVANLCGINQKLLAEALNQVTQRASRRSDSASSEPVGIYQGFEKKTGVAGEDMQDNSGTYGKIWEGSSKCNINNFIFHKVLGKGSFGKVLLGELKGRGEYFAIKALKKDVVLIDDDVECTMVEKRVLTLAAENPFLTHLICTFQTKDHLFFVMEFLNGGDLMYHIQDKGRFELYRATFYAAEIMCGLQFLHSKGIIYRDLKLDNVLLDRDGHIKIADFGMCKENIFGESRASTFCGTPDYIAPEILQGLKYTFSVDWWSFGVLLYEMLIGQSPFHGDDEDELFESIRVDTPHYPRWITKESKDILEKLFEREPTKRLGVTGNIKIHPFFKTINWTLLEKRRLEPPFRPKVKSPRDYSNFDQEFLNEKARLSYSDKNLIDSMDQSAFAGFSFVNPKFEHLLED
Method: Binding efficiency and specificity of the peptides PRE 2, 3, 4, 5, 6, 7, 8, 9, 10, 11, 12 and 13 (see Table 4) was also tested using cytoplasmic extracts from different cell lines expressing appropriate PKC isoforms as described for Example 1. Briefly, the protein cytoplasmic extracts were separated by electrophoresis and transferred onto nitrocellulose membranes by standard Western blotting procedures. The bands on the Western blots were detected with matching primary antibodies and alkaline phosphatase conjugated secondary antibody. The bands were then scanned and the relative density measurements obtained.
This procedure to assess the binding characteristics of the PREs is based on competition binding of the PRE with the primary anti-isoform PKC specific antibodies. The lower the measured band density, the greater the binding of the PRE to the PKC isoform. The PREs were added at 10 and 20 times (10×, 20×) the primary antibody concentration, according to classical competition between antigenic peptide and primary antibody. The following cell lines (obtained from the ATCC) were used: H661—NCI human lung carcinoma NSCLC; MDAMB231—human highly invasive breast cancer cell line from pleural effusion; LS180—human colon adenocarcinoma; LnCAP—human prostate adenocarcinoma; CCD16Lu—human lung fibroblasts; Du145—human prostate carcinoma brain metastasis, and T24—human bladder carcinoma.
In these cases, the 20× band density figures relative to control and 10× values were reliable.

PKC-α = PKC-α (Homo sapiens, UniProt P17252); assay: as above; set-up: endogenous PKC-α in (A) untreated human neuroblastoma (IMR-32) cells; endogenous in cells; host or cells: IMR-32 human neuroblastoma cells; key: —: no detectable affinity; Low to very low affinity at 10X or 20X or both PRE concentrations in at least one cell line in the cell extract assay; Low affinity in purified isoform assay.; Moderate affinity at 10X or 20X or both PRE concentrations in at least one cell line in the cell extract assay.; High affinity at 10X or 20X or both PRE concentrations in at least one cell line in the cell extract assay; High affinity in purified isoform assay; settings: Cell extract; PRE 10X or 20X antibody concentration

CC[C@H](C)[C@H](NC(=O)[C@H](CO)NC(=O)[C@@H](NC(=O)CNC(=O)[C@@H](NC(=O)[C@H](CC(C)C)NC(=O)[C@H](CC(N)=O)NC(=O)[C@H](CCC(N)=O)NC(=O)[C@H](C)NC(=O)[C@H](CC(=O)O)NC(=O)CNC(=O)CNC(=O)[C@H](CCCCN)NC(=O)[C@@H](NC(=O)[C@H](CCC(=O)O)NC(=O)[C@H](CCC(N)=O)NC(=O)[C@@H](NC(=O)CNC(=O)[C@H](CCCCN)NC(=O)[C@H](C)NC(C)=O)[C@@H](C)CC)C(C)C)[C@@H](C)CC)[C@@H](C)CC)C(N)=O [PRE 3] (Ac-AKGIQEVKGGDAQNLIGISI-NH2)
Affinity for PKC isoform δ (PKC-δ): H | Affinity for PKC isoform α (PKC-α): H

CC[C@H](C)[C@H](NC(=O)[C@H](CO)NC(=O)[C@@H](NC(=O)CNC(=O)[C@@H](NC(=O)[C@H](CC(C)C)NC(=O)[C@H](CC(N)=O)NC(=O)[C@H](CCC(N)=O)NC(=O)[C@H](C)NC(=O)[C@H](CC(=O)O)NC(=O)[C@H](CCCCN)NC(C)=O)[C@@H](C)CC)[C@@H](C)CC)C(N)=O [PRE 4, Ac-KDAQNLIGISI-NH2] (Ac-KDAQNLIGISI-NH2)
Affinity for PKC isoform δ (PKC-δ): — | Affinity for PKC isoform α (PKC-α): H

CC[C@H](C)[C@H](NC(=O)[C@H](CO)NC(=O)[C@@H](NC(=O)CNC(=O)[C@@H](NC(=O)[C@H](CC(C)C)NC(=O)[C@H](CC(N)=O)NC(=O)[C@H](CCC(N)=O)NC(=O)[C@H](C)NC(=O)[C@H](CC(=O)O)NC(=O)[C@H](CCCCN)NC(=O)CNC(=O)CNC(=O)[C@H](CCCCN)NC(=O)[C@@H](NC(=O)[C@H](CCC(=O)O)NC(=O)[C@H](CCC(N)=O)NC(=O)[C@@H](NC(=O)CNC(=O)[C@H](CCCCN)NC(=O)[C@H](C)NC(C)=O)[C@@H](C)CC)C(C)C)[C@@H](C)CC)[C@@H](C)CC)C(N)=O [PRE 5] (Ac-AKGIQEVKGGKDAQNLIGISI-NH2)
Affinity for PKC isoform δ (PKC-δ): — | Affinity for PKC isoform α (PKC-α): M

Ac-ISIGILNQADK-NH2 [PRE 10]
Affinity for PKC isoform δ (PKC-δ): H | Affinity for PKC isoform α (PKC-α): H/L

Ac-ISIGILQNADK-NH2 (not fully specified; printed as Ac-ISIGILQNADK-NH2) [PRE 7]
Affinity for PKC isoform δ (PKC-δ): L | Affinity for PKC isoform α (PKC-α): L

Ac-KDANQLIGISI-NH2 [PRE 6]
Affinity for PKC isoform δ (PKC-δ): M/H | Affinity for PKC isoform α (PKC-α): H/L

Ac-KDAQNLI-NH2 [PRE 12]
Affinity for PKC isoform δ (PKC-δ): — | Affinity for PKC isoform α (PKC-α): —

Ac-RDAQNLI-NH2 [PRE 13]
Affinity for PKC isoform δ (PKC-δ): — | Affinity for PKC isoform α (PKC-α): M/H

Ac-RDAQNLIGISI-NH2 [PRE 11]
Affinity for PKC isoform δ (PKC-δ): — | Affinity for PKC isoform α (PKC-α): H/L

Ac-isigilqnadk-NH2 (Ac-[dI][dS][dI]G[dI][dL][dQ][dN][dA][dD][dK]-NH2; SMILES CC[C@@H](C)[C@@H](NC(C)=O)C(=O)N[C@H](CO)C(=O)N[C@@H](C(=O)NCC(=O)N[C@@H](C(=O)N[C@H](CC(C)C)C(=O)N[C@H](CCC(N)=O)C(=O)N[C@H](CC(N)=O)C(=O)N[C@H](C)C(=O)N[C@H](CC(=O)O)C(=O)N[C@H](CCCCN)C(N)=O)[C@H](C)CC)[C@H](C)CC) [PRE 9]
Affinity for PKC isoform δ (PKC-δ): H | Affinity for PKC isoform α (PKC-α): M/L

ILEDKGGDAQNLIGISI [PRE 8]
Affinity for PKC isoform δ (PKC-δ): L | Affinity for PKC isoform α (PKC-α): M/L

RRKKGGKDFVVKR [PRE 1]
Affinity for PKC isoform δ (PKC-δ): — | Affinity for PKC isoform α (PKC-α): H
